Tests used:
[1] = molecular target: murine CCR8 (mouse) (UniProt P56484); assay: FACS, BODIPY-labelled antibody, BW5147.3
[2] = molecular target: human CCR8 (human) (UniProt P51685); assay: FACS, BODIPY-labelled antibody, HuT78
[3] = molecular target: cynomolgus CCR8 (cynomolgus); assay: FACS, CHO-cynoCCR8
[4] = molecular target: human CCR8 (human) (UniProt P51685); assay: cell-based or functional assay
[5] = molecular target: human CCR8 (human) (UniProt P51685); assay: FACS, CHO-hCCR8
[6] = molecular target: human FcRn (human) (UniProt P55899); assay: SPR pH 6.0, FcRn immobilised
human FcRn (human), sequence (P55899 24-297 limits assumed, form in doubt): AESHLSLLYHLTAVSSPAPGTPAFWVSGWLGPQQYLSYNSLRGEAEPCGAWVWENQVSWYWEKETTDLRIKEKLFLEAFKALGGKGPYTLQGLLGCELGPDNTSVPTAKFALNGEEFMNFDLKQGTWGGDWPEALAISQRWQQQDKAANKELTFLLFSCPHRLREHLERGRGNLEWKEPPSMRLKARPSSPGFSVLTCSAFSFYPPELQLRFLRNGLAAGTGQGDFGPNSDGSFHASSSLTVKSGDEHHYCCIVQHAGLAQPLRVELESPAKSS

[7] = molecular target: cynomolgus FcRn (cynomolgus) (UniProt Q8SPV9); assay: SPR pH 6.0, FcRn immobilised
cynomolgus FcRn (cynomolgus), sequence (Q8SPV9 24-297 limits assumed, form in doubt): as the sequence (P55899 24-297 limits assumed, form in doubt) above, with N39D, E44Q, G99S, S189G, S190N, L217M, S269T counted along it

[8] = molecular target: mouse FcRn (mouse) (UniProt Q61559); assay: SPR pH 6.0, FcRn immobilised
mouse FcRn (mouse), sequence (Q61559 22-297 limits assumed, form in doubt): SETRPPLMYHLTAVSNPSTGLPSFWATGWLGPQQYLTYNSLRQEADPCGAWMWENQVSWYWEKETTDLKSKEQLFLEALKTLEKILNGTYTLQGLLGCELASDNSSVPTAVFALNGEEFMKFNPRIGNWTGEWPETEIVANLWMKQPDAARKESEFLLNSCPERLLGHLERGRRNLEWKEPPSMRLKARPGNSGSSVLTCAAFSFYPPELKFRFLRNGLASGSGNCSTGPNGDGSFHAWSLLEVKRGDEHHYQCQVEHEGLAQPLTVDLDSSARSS

[9] = molecular target: FcRn of the FcRn column (Roche, Order No. 8128057001); assay: FcRn affinity chromatography, pH gradient

Ustekinumab (antibody), sequence (HC): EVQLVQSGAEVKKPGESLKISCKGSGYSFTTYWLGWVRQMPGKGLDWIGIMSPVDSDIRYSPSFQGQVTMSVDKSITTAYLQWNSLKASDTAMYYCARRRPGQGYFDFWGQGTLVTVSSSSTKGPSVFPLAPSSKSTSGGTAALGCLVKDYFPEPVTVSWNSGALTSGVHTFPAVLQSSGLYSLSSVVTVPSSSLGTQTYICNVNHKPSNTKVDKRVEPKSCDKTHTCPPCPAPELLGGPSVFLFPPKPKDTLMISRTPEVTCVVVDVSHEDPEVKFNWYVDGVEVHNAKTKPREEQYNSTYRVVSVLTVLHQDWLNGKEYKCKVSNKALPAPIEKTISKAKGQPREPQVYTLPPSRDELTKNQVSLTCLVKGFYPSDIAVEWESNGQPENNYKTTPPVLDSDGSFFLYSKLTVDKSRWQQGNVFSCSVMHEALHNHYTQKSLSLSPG
Ustekinumab (antibody), sequence (LC): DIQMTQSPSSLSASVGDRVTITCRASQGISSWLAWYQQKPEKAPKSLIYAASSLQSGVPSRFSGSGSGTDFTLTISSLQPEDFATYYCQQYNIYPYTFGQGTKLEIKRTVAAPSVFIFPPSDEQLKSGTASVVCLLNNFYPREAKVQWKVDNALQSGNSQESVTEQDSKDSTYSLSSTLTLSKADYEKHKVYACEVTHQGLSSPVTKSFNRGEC
cynomolgus CCR8 (cynomolgus), sequence (O97665 other isoform, or with tags, fused parts or gaps): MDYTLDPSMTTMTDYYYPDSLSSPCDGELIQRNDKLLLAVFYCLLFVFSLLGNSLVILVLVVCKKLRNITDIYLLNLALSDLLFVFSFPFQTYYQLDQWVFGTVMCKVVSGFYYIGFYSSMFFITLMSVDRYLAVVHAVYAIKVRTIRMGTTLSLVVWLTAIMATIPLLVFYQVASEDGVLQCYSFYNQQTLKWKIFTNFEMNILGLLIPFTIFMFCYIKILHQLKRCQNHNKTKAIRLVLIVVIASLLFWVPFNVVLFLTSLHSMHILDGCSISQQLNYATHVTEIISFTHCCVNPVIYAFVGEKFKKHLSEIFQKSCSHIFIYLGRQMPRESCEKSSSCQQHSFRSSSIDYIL
murine CCR8 (mouse), sequence (P56484 whole entry): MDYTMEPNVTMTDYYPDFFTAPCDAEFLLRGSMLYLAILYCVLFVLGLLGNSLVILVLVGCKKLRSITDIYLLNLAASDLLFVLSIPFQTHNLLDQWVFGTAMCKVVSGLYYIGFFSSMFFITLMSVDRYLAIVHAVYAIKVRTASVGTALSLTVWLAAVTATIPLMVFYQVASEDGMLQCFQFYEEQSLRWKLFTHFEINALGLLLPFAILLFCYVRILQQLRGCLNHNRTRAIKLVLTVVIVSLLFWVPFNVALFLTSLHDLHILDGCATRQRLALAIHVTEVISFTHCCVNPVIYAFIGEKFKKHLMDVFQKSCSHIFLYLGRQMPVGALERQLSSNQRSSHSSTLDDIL

Kd [6] | Kd [7] | Kd [8] | pH at Elution [9] | Substance | further results
230 nM | 160 nM | 560 nM | 7.85 pH | Briakinumab (antibody) | –
200 nM | 260 nM | 71 nM | 7.22 pH | Ustekinumab (antibody) | –

More lines, now with the values behind:

Substance | Kd [6] | Kd [7] | Kd [8] | pH at Elution [9] | further results
SA214G2 (antibody) | – | – | – | – | FACS mBW5147.3 [MFI] [1]: 48 MFI
L263G8 (antibody) | – | – | – | – | FACS HuT78 [MFI] [2]: 40 MFI; EC50 [3]: 132 nM; IC50, Ca flux assay [4]: 1.26 nM; IC50, inhibition of CCL1 induced β-arrestin signaling [4]: 13.8 nM; EC50 [5]: 0.31 nM
CCL1 (human) (from UniProt P22362 24-96) (ligand) | – | – | – | – | EC80, β-arrestin signaling (DiscoverX assay) [4]: 0.02 µg/mL
